Test results: patent publication US20220411483A1 (Chugai, published 2022)
Numbering of substitutions follows the chain as printed.

T1: FcγRIIa R type extracellular domain, His tag (human, UniProt P12318 34-217)
T1 construct: extracellular domain; also called FcgRIIaR
T1 sequence (looked up): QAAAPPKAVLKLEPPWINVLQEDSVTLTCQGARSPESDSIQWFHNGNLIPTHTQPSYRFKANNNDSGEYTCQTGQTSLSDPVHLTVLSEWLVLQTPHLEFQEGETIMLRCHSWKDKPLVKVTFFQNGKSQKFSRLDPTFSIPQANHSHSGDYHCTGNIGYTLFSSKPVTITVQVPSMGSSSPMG

T2: FcγRIIb extracellular domain, His tag (human, UniProt P31994 43-217)
T2 construct: extracellular domain; also called FcgRIIb
T2 sequence (looked up): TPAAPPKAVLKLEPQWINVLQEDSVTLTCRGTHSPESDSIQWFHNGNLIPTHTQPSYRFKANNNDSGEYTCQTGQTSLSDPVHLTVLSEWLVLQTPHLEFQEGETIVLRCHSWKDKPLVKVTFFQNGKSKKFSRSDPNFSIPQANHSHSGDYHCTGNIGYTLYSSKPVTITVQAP

T3: FcγRIIa H type extracellular domain, His tag (human, UniProt P12318 34-217)
T3 construct: extracellular domain; also called FcgRIIaH
T3 sequence (looked up): T1 sequence (looked up) with R134H

B1: IL6R-P659/IL6R-L (antibody, human IgG1, kappa)
heavy: QVQLQESGPGLVKPSETLSLTCAVSGHSISHDHAWSWVRQPPGEGLEWIGFISYSGITNYNPSLQGRVTISRDNSKNTLYLQMNSLRAEDTAVYYCARSLARTTAMDYWGEGTLVTVSSASTKGPSVFPLAPSSKSTSGGTAALGCLVKDYFPEPVTVSWNSGALTSGVHTFPAVLQSSGLYSLSSVVTVPSSSLGTQTYICNVNHKPSNTKVDKKVEPKSCDKTHTCPPCPAPELLGQDSVMLFPPKPKDTLMISRTPEVTCVVVDVSHEDPEVKFNWYVDGVEVHNAKTKPREEQENSTYRVVSVLTVLHQDWLNGKEYKCKVSNKALPAPIEKTISKAKGQPREPQVYTLPPSRDELTKNQVSLTCLVKGFYPSDIAVEWESNGQPENNYKTTPPVLDSDGSFFLYSKLTVDKSRWQQGNVFSCSVMHEALHNHYTQKSLSLSP
light: not shown
B2: IL6R-P658/IL6R-L (antibody, human IgG1, kappa)
heavy: B1 heavy with L237F, Q239G
light: not shown
B3: IL6R-P655/IL6R-L (antibody, human IgG1, kappa)
heavy: B1 heavy with Q239G, S326H
light: not shown
B4: IL6R-P654/IL6R-L (antibody, human IgG1, kappa)
heavy: B1 heavy with Q239G, S326N
light: not shown
B5: IL6R-P727/IL6R-L (antibody, human IgG1, kappa)
heavy: B1 heavy with H270P, A332H
light: not shown
B6: IL6R-P657/IL6R-L (antibody, human IgG1, kappa)
heavy: B1 heavy with Q239G, A332Y
light: not shown
B7: IL6R-P687/IL6R-L (antibody, human IgG1, kappa)
heavy: B1 heavy with Q239G, M243F, E298Y, S300A, S326N, A332H
light: not shown
B8: IL6R-P691/IL6R-L (antibody, human IgG1, kappa)
heavy: B1 heavy with L237F
light: not shown
B9: IL6R-P690/IL6R-L (antibody, human IgG1, kappa)
heavy: B1 heavy with A332H
light: not shown
B10: IL6R-P729/IL6R-L (antibody, human IgG1, kappa)
heavy: B1 heavy with L237F, H270P
light: not shown

target: T1, FcγRIIa R type extracellular domain, …; assay: SPR, bound amount per captured antibody

Going from B1 to B2, the “Relative FcgRIIaR-binding Activity” value rises from 9.1 % of IL6R-G1d/IL6R-L to 20.8 % of IL6R-G1d/IL6R-L.

Compared with B3, B4 is higher in “Relative FcgRIIaR-binding Activity” value: 17.1 % of IL6R-G1d/IL6R-L for the first, 18.2 % of IL6R-G1d/IL6R-L for the second.

Compared with B5, B6 is higher in “Relative FcgRIIaR-binding Activity” value: 8.3 % of IL6R-G1d/IL6R-L for the first, 15.4 % of IL6R-G1d/IL6R-L for the second.

First: B7
Second: B8
The “Relative FcgRIIaR-binding Activity” value of the first is higher: 12.6 % of IL6R-G1d/IL6R-L for the first, 10.7 % of IL6R-G1d/IL6R-L for the second.

Going from B9 to B10, the “Relative FcgRIIaR-binding Activity” value falls from 10.5 % of IL6R-G1d/IL6R-L to 10 % of IL6R-G1d/IL6R-L.

target: T2, FcγRIIb extracellular domain, His tag; assay: SPR, bound amount per captured antibody

First: B1
Second: B2
The “Relative FcgRIIb-binding Activity” value of the first is lower: 87 % of IL6R-G1d/IL6R-L for the first, 149 % of IL6R-G1d/IL6R-L for the second.

Compared with B3, B4 is higher in “Relative FcgRIIb-binding Activity” value: 127 % of IL6R-G1d/IL6R-L for the first, 128 % of IL6R-G1d/IL6R-L for the second.

Going from B5 to B6, the “Relative FcgRIIb-binding Activity” value rises from 108 % of IL6R-G1d/IL6R-L to 115 % of IL6R-G1d/IL6R-L.

Going from B7 to B8, the “Relative FcgRIIb-binding Activity” value rises from 100 % of IL6R-G1d/IL6R-L to 104 % of IL6R-G1d/IL6R-L.

Compared with B9, B10 is higher in “Relative FcgRIIb-binding Activity” value: 102 % of IL6R-G1d/IL6R-L for the first, 127 % of IL6R-G1d/IL6R-L for the second.

target: T3, FcγRIIa H type extracellular domain, …; assay: SPR, KD ratio

Going from B1 to B2, the “Relative FcgRIIaH-binding Activity” value rises from 0.006 fold of IL6R-G1d/IL6R-L to 0.01 fold of IL6R-G1d/IL6R-L.

Going from B3 to B4, the “Relative FcgRIIaH-binding Activity” value falls from 0.017 fold of IL6R-G1d/IL6R-L to 0.014 fold of IL6R-G1d/IL6R-L.

Compared with B5, B6 is higher in “Relative FcgRIIaH-binding Activity” value: 0.007 fold of IL6R-G1d/IL6R-L for the first, 0.009 fold of IL6R-G1d/IL6R-L for the second.

B7 and B8 are the same in “Relative FcgRIIaH-binding Activity” value: 0.007 fold of IL6R-G1d/IL6R-L for the first, 0.007 fold of IL6R-G1d/IL6R-L for the second.

First: B9
Second: B10
The “Relative FcgRIIaH-binding Activity” value of the first is higher: 0.007 fold of IL6R-G1d/IL6R-L for the first, 0.005 fold of IL6R-G1d/IL6R-L for the second.

target: T1, FcγRIIa R type extracellular domain, …; assay: SPR, KD ratio

Going from B1 to B2, the “Relative FcgRIIaR-binding Activity” value rises from 0.015 fold of IL6R-G1d/IL6R-L to 0.038 fold of IL6R-G1d/IL6R-L.

Going from B3 to B4, the “Relative FcgRIIaR-binding Activity” value rises from 0.03 fold of IL6R-G1d/IL6R-L to 0.032 fold of IL6R-G1d/IL6R-L.

Going from B5 to B6, the “Relative FcgRIIaR-binding Activity” value rises from 0.012 fold of IL6R-G1d/IL6R-L to 0.026 fold of IL6R-G1d/IL6R-L.

Going from B7 to B8, the “Relative FcgRIIaR-binding Activity” value falls from 0.02 fold of IL6R-G1d/IL6R-L to 0.017 fold of IL6R-G1d/IL6R-L.

Going from B9 to B10, the “Relative FcgRIIaR-binding Activity” value falls from 0.017 fold of IL6R-G1d/IL6R-L to 0.015 fold of IL6R-G1d/IL6R-L.

target: T4, FcγRIIIa V type extracellular domain, His tag (human, UniProt P08637 17-208); assay: SPR, KD ratio
T4 construct: extracellular domain; also called FcgRIIIaV
T4 sequence (P08637 17-208 F176V): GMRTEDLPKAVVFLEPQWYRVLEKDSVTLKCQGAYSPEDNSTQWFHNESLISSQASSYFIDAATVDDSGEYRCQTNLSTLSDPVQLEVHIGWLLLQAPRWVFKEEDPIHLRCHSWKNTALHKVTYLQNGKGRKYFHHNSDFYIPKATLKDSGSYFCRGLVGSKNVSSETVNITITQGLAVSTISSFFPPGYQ

B1 and B2 are the same in “Relative FcgRIIIaV-binding Activity” value: 0.005 fold of IL6R-G1d/IL6R-L for the first, 0.005 fold of IL6R-G1d/IL6R-L for the second.

B3 and B4 are the same in “Relative FcgRIIIaV-binding Activity” value: 0.007 fold of IL6R-G1d/IL6R-L for the first, 0.007 fold of IL6R-G1d/IL6R-L for the second.

B5 and B6 are the same in “Relative FcgRIIIaV-binding Activity” value: 0.005 fold of IL6R-G1d/IL6R-L for the first, 0.005 fold of IL6R-G1d/IL6R-L for the second.

Compared with B7, B8 is lower in “Relative FcgRIIIaV-binding Activity” value: 0.008 fold of IL6R-G1d/IL6R-L for the first, 0.007 fold of IL6R-G1d/IL6R-L for the second.

Going from B9 to B10, the “Relative FcgRIIIaV-binding Activity” value rises from 0.005 fold of IL6R-G1d/IL6R-L to 0.006 fold of IL6R-G1d/IL6R-L.

target: T2, FcγRIIb extracellular domain, His tag; assay: SPR, KD ratio

Compared with B1, B2 is higher in “Relative FcgRIIb-binding Activity” value: 0.807 fold of IL6R-G1d/IL6R-L for the first, 3.81 fold of IL6R-G1d/IL6R-L for the second.

First: B3
Second: B4
The “Relative FcgRIIb-binding Activity” value of the first is lower: 1.89 fold of IL6R-G1d/IL6R-L for the first, 2.02 fold of IL6R-G1d/IL6R-L for the second.

First: B5
Second: B6
The “Relative FcgRIIb-binding Activity” value of the first is lower: 1.06 fold of IL6R-G1d/IL6R-L for the first, 1.64 fold of IL6R-G1d/IL6R-L for the second.

Going from B7 to B8, the “Relative FcgRIIb-binding Activity” value rises from 1.01 fold of IL6R-G1d/IL6R-L to 1.19 fold of IL6R-G1d/IL6R-L.

Going from B9 to B10, the “Relative FcgRIIb-binding Activity” value falls from 1.28 fold of IL6R-G1d/IL6R-L to 1.17 fold of IL6R-G1d/IL6R-L.

target: T5, FcγRIa extracellular domain, His tag (human, UniProt P12314 16-292); assay: SPR, KD ratio
T5 construct: whole entry named; also called FcgRIa
T5 sequence (P12314 16-292): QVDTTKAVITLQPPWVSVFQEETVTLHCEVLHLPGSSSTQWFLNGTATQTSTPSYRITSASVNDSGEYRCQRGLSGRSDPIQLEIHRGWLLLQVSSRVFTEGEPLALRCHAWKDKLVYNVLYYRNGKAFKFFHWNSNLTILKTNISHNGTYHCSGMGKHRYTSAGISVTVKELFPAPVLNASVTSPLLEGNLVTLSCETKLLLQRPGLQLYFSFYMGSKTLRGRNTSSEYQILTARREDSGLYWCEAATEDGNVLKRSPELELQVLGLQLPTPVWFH

Compared with B1, B2 is lower in “Relative FcgRIa-binding Activity” value: 0.0041 fold of IL6R-G1d/IL6R-L for the first, 0.0004 fold of IL6R-G1d/IL6R-L for the second.

First: B3
Second: B4
The “Relative FcgRIa-binding Activity” value of the first is lower: 0.0183 fold of IL6R-G1d/IL6R-L for the first, 0.0206 fold of IL6R-G1d/IL6R-L for the second.

Going from B5 to B6, the “Relative FcgRIa-binding Activity” value rises from 0.0014 fold of IL6R-G1d/IL6R-L to 0.0194 fold of IL6R-G1d/IL6R-L.

Going from B7 to B8, the “Relative FcgRIa-binding Activity” value falls from 0.0471 fold of IL6R-G1d/IL6R-L to 0.0004 fold of IL6R-G1d/IL6R-L.

Going from B9 to B10, the “Relative FcgRIa-binding Activity” value falls from 0.0011 fold of IL6R-G1d/IL6R-L to 0.0005 fold of IL6R-G1d/IL6R-L.
